Measured values from the supplement of paper PMC10567573.

B1: SASS6 (parent)
chain: QKELQDVGQSLRIKEQEVCKLQEQ
B2: FAM50A (parent)
chain: HIFPASRWEPYDPEKKWDKYTIR

Variants of: B1
Assay: protein stability index of a GFP-peptide fusion (GPS, HEK-293T) (PSI 1-6); higher = more stable
Conditions: c terminus: a fixed tail appended
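Also: lentivirally expressed fusions sorted by FACS into six bins by GFP to DsRed ratio, PSI derived from sequencing read proportions per bin multiplied by bin number.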

Q: For QKELQDVGQSLRIKEQEVCKLFEQ [Q22F], which protein stability index is on record?
A: The protein stability index was 4.5.

Q: Which protein stability index does the source give for QKELQDVGQSLRIKEQEVCKLDEQ [Q22D] here?
A: Its protein stability index is 5.58.

Q: With QKELQDVGQSLRIKEQEVCKLLEQ [Q22L] as the variant, how does the protein stability index read?
A: The protein stability index was 4.44.

Q: For QKELQDVGQSLRIKEQEVCKLTEQ [Q22T], which protein stability index is on record?
A: The protein stability index was 5.06.

Q: Which protein stability index does the source give for QKELQDVGQSLRIKEQEVCKLCEQ [Q22C] here?
A: The protein stability index was 4.34.

Q: With QKELQDVGQSLRIKEQEVCKLIEQ [Q22I] as the variant, how does the protein stability index read?
A: The protein stability index was 4.69.

Q: With QKELQDVGQSLRIKEQEVCKLNEQ [Q22N] as the variant, how does the protein stability index read?
A: Its protein stability index is 5.11.

Q: For QKELQDVGQSLRIKEQEVCKLKEQ [Q22K], which protein stability index is on record?
A: Its protein stability index is 5.25.

Q: Which protein stability index does the source give for QKELQDVGQSLRIKEQEVCKLYEQ [Q22Y] here?
A: The protein stability index was 4.67.

Q: With QKELQDVGQSLRIKEQEVCKLWEQ [Q22W] as the variant, how does the protein stability index read?
A: The protein stability index was 4.83.

Q: With QKELQDVGQSLRIKEQEVCKLVEQ [Q22V] as the variant, how does the protein stability index read?
A: The protein stability index was 4.4.

Q: With QKELQDVGQSLRIKEQEVCKLMEQ [Q22M] as the variant, how does the protein stability index read?
A: The protein stability index was 4.88.

Q: With QKELQDVGQSLRIKEQEVCKLPEQ [Q22P] as the variant, how does the protein stability index read?
A: The protein stability index was 5.27.

Q: With QKELQDVGQSLRIKEQEVCKLHEQ [Q22H] as the variant, how does the protein stability index read?
A: Its protein stability index is 4.79.

Q: For QKELQDVGQSLRIKEQEVCKLREQ [Q22R], which protein stability index is on record?
A: The protein stability index was 5.07.

Q: Which protein stability index does the source give for QKELQDVGQSLRIKEQEVCKLEEQ [Q22E] here?
A: Its protein stability index is 5.4.

Q: Which protein stability index does the source give for QKELQDVGQSLRIKEQEVCKLQTQ [E23T] here?
A: The protein stability index was 4.99.

Q: For QKELQDVGQSLRIKEQEVCKLQIQ [E23I], which protein stability index is on record?
A: Its protein stability index is 4.4.

Q: Which protein stability index does the source give for QKELQDVGQSLRIKEQEVCKLQYQ [E23Y] here?
A: Its protein stability index is 4.12.

Q: With QKELQDVGQSLRIKEQEVCKLQGQ [E23G] as the variant, how does the protein stability index read?
A: Its protein stability index is 5.58.

Q: With QKELQDVGQSLRIKEQEVCKLQRQ [E23R] as the variant, how does the protein stability index read?
A: The protein stability index was 4.76.

Q: With QKELQDVGQSLRIKEQEVCKLQCQ [E23C] as the variant, how does the protein stability index read?
A: The protein stability index was 4.29.

Q: Which protein stability index does the source give for QKELQDVGQSLRIKEQEVCKLQMQ [E23M] here?
A: The protein stability index was 4.24.

Q: Which protein stability index does the source give for QKELQDVGQSLRIKEQEVCKLQKQ [E23K] here?
A: Its protein stability index is 4.89.

Q: With QKELQDVGQSLRIKEQEVCKLQQQ [E23Q] as the variant, how does the protein stability index read?
A: Its protein stability index is 4.71.

Q: With QKELQDVGQSLRIKEQEVCKLQFQ [E23F] as the variant, how does the protein stability index read?
A: The protein stability index was 4.52.

Q: With QKELQDVGQSLRIKEQEVCKLQPQ [E23P] as the variant, how does the protein stability index read?
A: Its protein stability index is 4.49.

Q: For QKELQDVGQSLRIKEQEVCKLQSQ [E23S], which protein stability index is on record?
A: The protein stability index was 4.82.

Q: With QKELQDVGQSLRIKEQEVCKLQLQ [E23L] as the variant, how does the protein stability index read?
A: Its protein stability index is 4.69.

Q: With QKELQDVGQSLRIKEQEVCKLQDQ [E23D] as the variant, how does the protein stability index read?
A: Its protein stability index is 5.27.

Q: With QKELQDVGQSLRIKEQEVCKLQVQ [E23V] as the variant, how does the protein stability index read?
A: Its protein stability index is 4.51.

Q: With QKELQDVGQSLRIKEQEVCKLQNQ [E23N] as the variant, how does the protein stability index read?
A: The protein stability index was 4.5.

Q: With QKELQDVGQSLRIKEQEVCKLQHQ [E23H] as the variant, how does the protein stability index read?
A: Its protein stability index is 5.02.

Q: Which protein stability index does the source give for QKELQDVGQSLRIKEQEVCKKQEQ [L21K] here?
A: Its protein stability index is 5.81.

Q: With QKELQDVGQSLRIKEQEVCKPQEQ [L21P] as the variant, how does the protein stability index read?
A: The protein stability index was 5.4.

Q: Which protein stability index does the source give for QKELQDVGQSLRIKEQEVCKTQEQ [L21T] here?
A: Its protein stability index is 5.68.

Q: For QKELQDVGQSLRIKEQEVCKWQEQ [L21W], which protein stability index is on record?
A: The protein stability index was 4.92.

Q: For QKELQDVGQSLRIKEQEVCKNQEQ [L21N], which protein stability index is on record?
A: The protein stability index was 5.68.

Q: With QKELQDVGQSLRIKEQEVCKIQEQ [L21I] as the variant, how does the protein stability index read?
A: Its protein stability index is 5.43.

Q: With QKELQDVGQSLRIKEQEVCKYQEQ [L21Y] as the variant, how does the protein stability index read?
A: Its protein stability index is 5.38.

Q: For QKELQDVGQSLRIKEQEVCKSQEQ [L21S], which protein stability index is on record?
A: The protein stability index was 5.27.

Q: Which protein stability index does the source give for QKELQDVGQSLRIKEQEVCKHQEQ [L21H] here?
A: Its protein stability index is 5.57.

Q: Which protein stability index does the source give for QKELQDVGQSLRIKEQEVCKQQEQ [L21Q] here?
A: Its protein stability index is 5.42.

Q: With QKELQDVGQSLRIKEQEVCKMQEQ [L21M] as the variant, how does the protein stability index read?
A: The protein stability index was 5.03.

Q: Which protein stability index does the source give for QKELQDVGQSLRIKEQEVCKGQEQ [L21G] here?
A: Its protein stability index is 5.9.

Q: Which protein stability index does the source give for QKELQDVGQSLRIKEQEVCKLQEH [Q24H] here?
A: Its protein stability index is 4.95.

Q: For QKELQDVGQSLRIKEQEVCKLQEP [Q24P], which protein stability index is on record?
A: Its protein stability index is 5.58.

Q: With QKELQDVGQSLRIKEQEVCKLQEN [Q24N] as the variant, how does the protein stability index read?
A: Its protein stability index is 5.39.

Q: For QKELQDVGQSLRIKEQEVCKLQEW [Q24W], which protein stability index is on record?
A: The protein stability index was 4.84.

Q: Which protein stability index does the source give for QKELQDVGQSLRIKEQEVCKLQET [Q24T] here?
A: The protein stability index was 5.35.

Q: Which protein stability index does the source give for QKELQDVGQSLRIKEQEVCKLQEF [Q24F] here?
A: The protein stability index was 4.44.

Q: With QKELQDVGQSLRIKEQEVCKLQEM [Q24M] as the variant, how does the protein stability index read?
A: Its protein stability index is 5.05.

Q: Which protein stability index does the source give for QKELQDVGQSLRIKEQEVCKLQEY [Q24Y] here?
A: The protein stability index was 4.57.

Q: For QKELQDVGQSLRIKEQEVCKLQEI [Q24I], which protein stability index is on record?
A: The protein stability index was 4.7.

Q: With QKELQDVGQSLRIKEQEVCKLQEA [Q24A] as the variant, how does the protein stability index read?
A: Its protein stability index is 5.21.

Q: For QKELQDVGQSLRIKEQEVCKLQEV [Q24V], which protein stability index is on record?
A: The protein stability index was 4.92.

Q: With QKELQDVGQSLRIKEQEVCKLQEK [Q24K] as the variant, how does the protein stability index read?
A: Its protein stability index is 5.27.

Q: For QKELQDVGQSLRIKEQEVCKLQEE [Q24E], which protein stability index is on record?
A: Its protein stability index is 5.77.

Q: With QKELQDVGQSLRIKEQEVCKLQEG [Q24G] as the variant, how does the protein stability index read?
A: Its protein stability index is 5.12.

Q: For QKELQDVGQSLRIKEQEVCKLQEC [Q24C], which protein stability index is on record?
A: Its protein stability index is 5.

Q: Which protein stability index does the source give for QKELQDVGQSLRIKEQEVCKLQEL [Q24L] here?
A: The protein stability index was 5.16.

Q: With QKELQDVGQSLRIKEQEVCKLQES [Q24S] as the variant, how does the protein stability index read?
A: Its protein stability index is 4.43.

Q: For QKELQDVGQSLRIKEQEVCKLQED [Q24D], which protein stability index is on record?
A: The protein stability index was 5.04.

Variants of: B2
Assay: as above
Conditions: c terminus: native

Q: Which protein stability index does the source give for HEFPASRWEPYDPEKKWDKYTIR [I2E] here?
A: Its protein stability index is 2.95.

Q: For HQFPASRWEPYDPEKKWDKYTIR [I2Q], which protein stability index is on record?
A: Its protein stability index is 3.11.

Q: With HMFPASRWEPYDPEKKWDKYTIR [I2M] as the variant, how does the protein stability index read?
A: The protein stability index was 2.35.

Q: With HGFPASRWEPYDPEKKWDKYTIR [I2G] as the variant, how does the protein stability index read?
A: The protein stability index was 3.14.

Q: Which protein stability index does the source give for HKFPASRWEPYDPEKKWDKYTIR [I2K] here?
A: The protein stability index was 2.48.

Q: Which protein stability index does the source give for HHFPASRWEPYDPEKKWDKYTIR [I2H] here?
A: The protein stability index was 2.41.

Q: With HDFPASRWEPYDPEKKWDKYTIR [I2D] as the variant, how does the protein stability index read?
A: The protein stability index was 2.28.

Q: With HFFPASRWEPYDPEKKWDKYTIR [I2F] as the variant, how does the protein stability index read?
A: Its protein stability index is 2.33.

Q: Which protein stability index does the source give for HNFPASRWEPYDPEKKWDKYTIR [I2N] here?
A: Its protein stability index is 3.19.

Q: With HTFPASRWEPYDPEKKWDKYTIR [I2T] as the variant, how does the protein stability index read?
A: Its protein stability index is 2.38.

Q: With HSFPASRWEPYDPEKKWDKYTIR [I2S] as the variant, how does the protein stability index read?
A: Its protein stability index is 2.83.

Q: For HAFPASRWEPYDPEKKWDKYTIR [I2A], which protein stability index is on record?
A: The protein stability index was 2.71.

Q: For HRFPASRWEPYDPEKKWDKYTIR [I2R], which protein stability index is on record?
A: Its protein stability index is 3.2.

Q: For HPFPASRWEPYDPEKKWDKYTIR [I2P], which protein stability index is on record?
A: The protein stability index was 2.15.

Q: For HLFPASRWEPYDPEKKWDKYTIR [I2L], which protein stability index is on record?
A: The protein stability index was 3.1.

Q: For HCFPASRWEPYDPEKKWDKYTIR [I2C], which protein stability index is on record?
A: Its protein stability index is 2.74.

Q: Which protein stability index does the source give for HVFPASRWEPYDPEKKWDKYTIR [I2V] here?
A: The protein stability index was 2.88.

Q: Which protein stability index does the source give for SIFPASRWEPYDPEKKWDKYTIR [H1S] here?
A: The protein stability index was 2.04.

Q: For EIFPASRWEPYDPEKKWDKYTIR [H1E], which protein stability index is on record?
A: The protein stability index was 2.52.

Q: With MIFPASRWEPYDPEKKWDKYTIR [H1M] as the variant, how does the protein stability index read?
A: The protein stability index was 1.22.

Q: Which protein stability index does the source give for CIFPASRWEPYDPEKKWDKYTIR [H1C] here?
A: The protein stability index was 2.4.

Q: For KIFPASRWEPYDPEKKWDKYTIR [H1K], which protein stability index is on record?
A: Its protein stability index is 1.08.

Q: Which protein stability index does the source give for GIFPASRWEPYDPEKKWDKYTIR [H1G] here?
A: Its protein stability index is 3.23.

Q: For WIFPASRWEPYDPEKKWDKYTIR [H1W], which protein stability index is on record?
A: Its protein stability index is 1.46.

Q: With YIFPASRWEPYDPEKKWDKYTIR [H1Y] as the variant, how does the protein stability index read?
A: Its protein stability index is 1.69.

Q: With VIFPASRWEPYDPEKKWDKYTIR [H1V] as the variant, how does the protein stability index read?
A: Its protein stability index is 1.45.

Q: Which protein stability index does the source give for PIFPASRWEPYDPEKKWDKYTIR [H1P] here?
A: The protein stability index was 2.83.

Q: With RIFPASRWEPYDPEKKWDKYTIR [H1R] as the variant, how does the protein stability index read?
A: The protein stability index was 2.34.

Q: For QIFPASRWEPYDPEKKWDKYTIR [H1Q], which protein stability index is on record?
A: Its protein stability index is 2.5.

Q: With AIFPASRWEPYDPEKKWDKYTIR [H1A] as the variant, how does the protein stability index read?
A: The protein stability index was 1.75.

Q: With NIFPASRWEPYDPEKKWDKYTIR [H1N] as the variant, how does the protein stability index read?
A: The protein stability index was 2.77.

Q: Which protein stability index does the source give for IIFPASRWEPYDPEKKWDKYTIR [H1I] here?
A: The protein stability index was 1.58.
